Legend:
Assay in all cases: cell-based or functional assay
[1] = target: HIV-1 Env of pseudovirus 6240_08_TA5_4622 (HIV-1)
[2] = target: HIV-1 Env of pseudovirus CNE53 (HIV-1)
[3] = target: HIV-1 Env of pseudovirus WEAU_d15_410_787 (HIV-1)
[4] = target: HIV-1 Env of pseudovirus HIV-0013095-2.11 (HIV-1)
[5] = target: HIV-1 Env of pseudovirus SC422661.8 (HIV-1)
[6] = target: HIV-1 Env of pseudovirus Du156.12 (HIV-1)
[7] = target: HIV-1 Env of pseudovirus 1012_11_TC21_3257 (HIV-1)
[8] = target: HIV-1 Env of pseudovirus TRO.11 (HIV-1)
[9] = target: HIV-1 Env of pseudovirus Q461.e2 (HIV-1)
[10] = target: HIV-1 Env of pseudovirus CNE19 (HIV-1)
[11] = target: HIV-1 Env of pseudovirus Ce1172_H1 (HIV-1)
[12] = target: HIV-1 Env of pseudovirus CNE52 (HIV-1)
[13] = target: HIV-1 Env of pseudovirus Ce2010_F5 (HIV-1)
[14] = target: HIV-1 Env of pseudovirus ZM109F.PB4 (HIV-1)
[15] = target: HIV-1 Env of pseudovirus ZM247v1(Rev-) (HIV-1)
[16] = target: HIV-1 Env of pseudovirus AC10.0.29 (HIV-1)
[17] = target: HIV-1 Env of pseudovirus HIV-16845-2.22 (HIV-1)
[18] = target: HIV-1 Env of pseudovirus Ce1176_A3 (HIV-1)
[19] = target: HIV-1 Env of pseudovirus CNE17 (HIV-1)
[20] = target: HIV-1 Env of pseudovirus THRO4156.18 (HIV-1)
[21] = target: HIV-1 Env of pseudovirus CNE21 (HIV-1)

Work on N49P9.1 (antibody) yielded an IC50 [1] of 0.716 µg/mL, an IC80 [1] of 2.55 µg/mL and an MPI [1] of 100. The IC50 [2] was 0.14 µg/mL, the IC80 [2] was 0.647 µg/mL and the MPI [2] was 99. It also gave an IC50 [3] of 0.068 µg/mL, an IC80 [3] of 0.253 µg/mL and an MPI [3] of 100. It also gave an IC50 [4] of 0.358 µg/mL, an IC80 [4] of 1.26 µg/mL and an MPI [4] of 100. It also gave an IC50 [5] of 0.127 µg/mL, an IC80 [5] of 0.468 µg/mL and an MPI [5] of 100. For the same substance, the IC50 [6] was 0.066 µg/mL, the IC80 [6] was 0.252 µg/mL and the MPI [6] was 100. For the same substance, the IC50 [7] was 0.382 µg/mL, the IC80 [7] was 1.45 µg/mL and the MPI [7] was 100. It also gave an IC50 [8] of 0.052 µg/mL, an IC80 [8] of 0.196 µg/mL and an MPI [8] of 100. It also gave an IC50 [9] of 0.363 µg/mL, an IC80 [9] of 1.15 µg/mL and an MPI [9] of 100. The IC50 [10] was 0.033 µg/mL, the IC80 [10] was 0.146 µg/mL and the MPI [10] was 100. The IC50 [11] was > 50 µg/mL, the IC80 [11] was > 50 µg/mL and the MPI [11] was 42. It also gave an IC50 [12] of 0.043 µg/mL, an IC80 [12] of 0.122 µg/mL and an MPI [12] of 100. It also gave an IC50 [13] of 0.12 µg/mL, an IC80 [13] of 0.38 µg/mL and an MPI [13] of 100. It also gave an IC50 [14] of 0.116 µg/mL, an IC80 [14] of 0.497 µg/mL and an MPI [14] of 95. For the same substance, the IC50 [15] was 1.88 µg/mL, the IC80 [15] was 17.8 µg/mL and the MPI [15] was 87. For the same substance, the IC50 [16] was 0.36 µg/mL, the IC80 [16] was 1.88 µg/mL and the MPI [16] was 99. It also gave an IC50 [17] of 2.13 µg/mL, an IC80 [17] of 10.7 µg/mL and an MPI [17] of 98. The IC50 [18] was 0.44 µg/mL, the IC80 [18] was 0.998 µg/mL and the MPI [18] was 100. For the same substance, the IC50 [19] was 0.251 µg/mL, the IC80 [19] was 1.23 µg/mL and the MPI [19] was 100. It also gave an IC50 [20] of 1.65 µg/mL, an IC80 [20] of 9.44 µg/mL and an MPI [20] of 99. The IC50 [21] was > 50 µg/mL, the IC80 [21] was > 50 µg/mL and the MPI [21] was 15.
N49P19 (antibody) showed an IC50 [1] of 2.1 µg/mL, an IC80 [1] of 7.52 µg/mL and an MPI [1] of 100. The IC50 [2] was 1.5 µg/mL, the IC80 [2] was > 50 µg/mL and the MPI [2] was 78. It also gave an IC50 [3] of 0.177 µg/mL, an IC80 [3] of 0.612 µg/mL and an MPI [3] of 100. For the same substance, the IC50 [4] was > 50 µg/mL, the IC80 [4] was > 50 µg/mL and the MPI [4] was 18. The IC50 [5] was 0.425 µg/mL, the IC80 [5] was 1.42 µg/mL and the MPI [5] was 100. It also gave an IC50 [6] of 2.17 µg/mL, an IC80 [6] of 17 µg/mL and an MPI [6] of 87. It also gave an IC50 [7] of 0.204 µg/mL, an IC80 [7] of 0.895 µg/mL and an MPI [7] of 100. It also gave an IC50 [8] of 0.394 µg/mL, an IC80 [8] of 1.3 µg/mL and an MPI [8] of 100. For the same substance, the IC50 [9] was 0.774 µg/mL, the IC80 [9] was 4.05 µg/mL and the MPI [9] was 100. For the same substance, the IC50 [10] was 20.7 µg/mL, the IC80 [10] was > 50 µg/mL and the MPI [10] was 59. The IC50 [11] was > 50 µg/mL, the IC80 [11] was > 50 µg/mL and the MPI [11] was 3. For the same substance, the IC50 [12] was 0.175 µg/mL, the IC80 [12] was 0.491 µg/mL and the MPI [12] was 100. For the same substance, the IC50 [13] was 7.66 µg/mL, the IC80 [13] was 45.4 µg/mL and the MPI [13] was 82. For the same substance, the IC50 [14] was 0.282 µg/mL, the IC80 [14] was 2.66 µg/mL and the MPI [14] was 92. The IC50 [15] was > 50 µg/mL, the IC80 [15] was > 50 µg/mL and the MPI [15] was 5. The IC50 [16] was > 50 µg/mL, the IC80 [16] was > 50 µg/mL and the MPI [16] was 13. For the same substance, the IC50 [17] was 14.5 µg/mL, the IC80 [17] was > 50 µg/mL and the MPI [17] was 73. For the same substance, the IC50 [18] was 1.57 µg/mL, the IC80 [18] was 9.84 µg/mL and the MPI [18] was 99. For the same substance, the IC50 [19] was > 50 µg/mL, the IC80 [19] was > 50 µg/mL and the MPI [19] was 30. For the same substance, the IC50 [20] was 17.1 µg/mL, the IC80 [20] was > 50 µg/mL and the MPI [20] was 69. For the same substance, the IC50 [21] was > 50 µg/mL, the IC80 [21] was > 50 µg/mL and the MPI [21] was 21.
N49P9 (antibody) gave an IC50 [1] of 0.308 µg/mL, an IC80 [1] of 1.26 µg/mL and an MPI [1] of 100. The IC50 [2] was 0.123 µg/mL, the IC80 [2] was 0.462 µg/mL and the MPI [2] was 99. It also gave an IC50 [3] of 0.063 µg/mL, an IC80 [3] of 0.162 µg/mL and an MPI [3] of 100. It also gave an IC50 [4] of 0.179 µg/mL, an IC80 [4] of 0.635 µg/mL and an MPI [4] of 100. The IC50 [5] was 0.241 µg/mL, the IC80 [5] was 0.691 µg/mL and the MPI [5] was 100. The IC50 [6] was 0.043 µg/mL, the IC80 [6] was 0.13 µg/mL and the MPI [6] was 100. The IC50 [7] was 0.194 µg/mL, the IC80 [7] was 0.591 µg/mL and the MPI [7] was 100. It also gave an IC50 [8] of 0.044 µg/mL, an IC80 [8] of 0.177 µg/mL and an MPI [8] of 100. It also gave an IC50 [9] of 0.271 µg/mL, an IC80 [9] of 0.953 µg/mL and an MPI [9] of 100. The IC50 [10] was 0.031 µg/mL, the IC80 [10] was 0.136 µg/mL and the MPI [10] was 100. The IC50 [11] was 8.8 µg/mL, the IC80 [11] was > 50 µg/mL and the MPI [11] was 70. The IC50 [12] was 0.026 µg/mL, the IC80 [12] was 0.09 µg/mL and the MPI [12] was 100. The IC50 [13] was 0.089 µg/mL, the IC80 [13] was 0.271 µg/mL and the MPI [13] was 100. For the same substance, the IC50 [14] was 0.075 µg/mL, the IC80 [14] was 0.349 µg/mL and the MPI [14] was 99. The IC50 [15] was 0.622 µg/mL, the IC80 [15] was 3.3 µg/mL and the MPI [15] was 100. The IC50 [16] was 0.285 µg/mL, the IC80 [16] was 0.986 µg/mL and the MPI [16] was 100. The IC50 [17] was 1.09 µg/mL, the IC80 [17] was 9.96 µg/mL and the MPI [17] was 98. The IC50 [18] was 0.258 µg/mL, the IC80 [18] was 0.919 µg/mL and the MPI [18] was 100. For the same substance, the IC50 [19] was 0.364 µg/mL, the IC80 [19] was 1.7 µg/mL and the MPI [19] was 100. It also gave an IC50 [20] of 1.41 µg/mL, an IC80 [20] of 8.21 µg/mL and an MPI [20] of 99. For the same substance, the IC50 [21] was > 50 µg/mL, the IC80 [21] was > 50 µg/mL and the MPI [21] was 36.
